This is an account of results in patent publication US6734169B2, “Apolipoprotein A-I agonists and their use to treat dyslipidemic disorders” (priority 1997, dated 2004).

In this assay the target is T1, LCAT (purified from human plasma) (Homo sapiens, UniProt P04180).
T1 construct: The reaction is initiated by addition of LCAT (purified from human plasma); from tissue
T1 sequence (P04180 25-440): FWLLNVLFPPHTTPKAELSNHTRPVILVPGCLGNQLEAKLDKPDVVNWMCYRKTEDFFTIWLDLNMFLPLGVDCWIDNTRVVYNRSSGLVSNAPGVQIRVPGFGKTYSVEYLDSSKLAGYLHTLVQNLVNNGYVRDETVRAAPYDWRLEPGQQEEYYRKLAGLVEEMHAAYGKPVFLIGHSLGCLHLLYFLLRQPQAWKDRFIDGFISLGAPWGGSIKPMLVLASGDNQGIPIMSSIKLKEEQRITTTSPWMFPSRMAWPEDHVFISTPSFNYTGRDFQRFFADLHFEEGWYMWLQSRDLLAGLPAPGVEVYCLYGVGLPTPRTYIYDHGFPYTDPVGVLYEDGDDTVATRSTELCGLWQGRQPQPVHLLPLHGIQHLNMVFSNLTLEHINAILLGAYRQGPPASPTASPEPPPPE
Kind of assay: LCAT activation assay. The assay is classed as biochemical. To be noted: LCAT activation as compared with native human ApoA-I (=100%); equivalent masses of peptide or ApoA-I; SUVs of EPC or POPC and radiolabelled cholesterol; listed as peptide 18AM4. As for the experimental part: The peptides synthesized as described in Section 6, supra, were analyzed in vitro for their ability to activate LCAT. In the LCAT assay, substrate vesicles (small unilamellar vesicles or “SUVs”) composed of egg phophatidylcholine (EPC) or 1-Palmitoyl-2-oleyl-phosphatidylcholine (POPC) and radiolabelled cholesterol are preincubated with equivalent masses either of peptide or ApoA-I (isolated from human plasma). The reaction is initiated by addition of LCAT (purified from human plasma). Native ApoA-I, which was used as positive control, represents 100% activation activity. “Specific activity” (i.e., units of activity (LCAT activation)/unit of mass) of the peptides can be calculated as the concentration of peptide that achieves maximum LCAT activation. For example, a series of concentrations of the peptide (e.g., a limiting dilution) can be assayed to determine the “specific activity” for the peptide—the concentration which achieves maximal LCAT activation (i.e., percentage conversion of cholesterol to cholesterol ester) at a specific timepoint in the assay (e.g., 1 hr.). When plotting percentage conversion of cholesterol at, e.c., 1 hr., against the concentration of peptide used, the “specific activity” can be identified as the concentration of peptide that achieves a plateau on the plotted curve. […]

EWLEAFYKKVLEKLKELF [peptide 246]: the “ACTIVITY (%) LCAT” value is on record as “less than 4%”.
